# From paper PMC12455589, “Abundant bacterial nucleoid-associated protein H-NS limits plasmid transfer through mechanical modification of DNA”
# B1: HBS dsDNA probe (P21/P22) (dsDNA)
# DNA 1: TAATTATTATAACTAAAAGTTTCTTTAATAATAAAACGAATAACTTGCAGATTTGAAAT
# DNA 2: ATTTCAAATCTGCAAGTTATTCGTTTTATTATTAAAGAAACTTTTAGTTATAATAATTA
# Target: T1, H-NS (Escherichia coli, UniProt P0ACF8 1-137)
# T1 sequence: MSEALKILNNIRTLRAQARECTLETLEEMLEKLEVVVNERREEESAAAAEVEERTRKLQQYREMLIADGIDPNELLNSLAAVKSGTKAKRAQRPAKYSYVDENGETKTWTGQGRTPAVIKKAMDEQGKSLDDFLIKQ
# Assay: EMSA; 0-80 ng/uL protein; 10 mM Mg2+; EMSA: 10 mM Tris-HCl pH 7.9, 125 mM KCl, 10 mM MgCl2, 0.1 mM DTT, 2.5% glycerol, 30 min, room temperature; bridging: 20 mM Tris-HCl pH 7.4, 150 mM NaCl, 1 mM DTT, 5% glycerol, 0.05% Tween 20, room temperature
# Conditions: protein: recombinant; tags: His6 (N-terminal); chain copies: 2; blunt
binder,measurement,value
B1,binding result,binds
